± gives the standard deviation of the averaged measurements.
Tested on: ATP
Experiment: switch fluorescence ratio, 500 uM ATP over buffer (Cy3 cluster intensity, sum of 5 cycles each) (fold (ratio)); higher = stronger signal-on switching upon ATP binding; sequences stand for … in TCGTCGGCAGCGTCAGATGTGTATAAGAGACAGTTTTTTTTTTTTTTTTTTTTTTTTT…TC
Conditions: aptamer strand: ATP DNA aptamer (quencher-CACCTGGGGGAGTATTGCGGAGGAAGG + anchor), 100 nM annealed; ATP concentration: 500 uM
Procedure, shortened: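 The quencher-labelled ATP aptamer, at 100 nM, was annealed to Cy3-labelled switching-strand clusters on a modified Illumina MiSeq flow-cell. The clusters were imaged in selection buffer, then after 15 min with 500 uM ATP at 22 °C, and this buffer/ATP cycle ran five times with NaOH stripping and re-annealing between runs. Per-cluster fluorescence ratios, summed target-cycle over summed buffer-cycle Cy3 intensity, were averaged per switch-domain sequence. Clusters outside 100-1000 RFU were excluded.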
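Also: ATP exposure 15 min at 22 °C before imaging.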

Sequence	switch fluorescence ratio
CACTAGCGGA	1.05 ± 0.023
CACTAGGGGG	1.05 ± 0.0083
CACTGAGATG	1.01 ± 0.03
CACTGCTTTA	1.02 ± 0.037
CACTGGGATT	1.01 ± 0.018
CACTGTCTGT	0.98 ± 0.028
CACTGTCTT	0.991 ± 0.019
CACTGTGACA	1.083 ± 0.0052
CACTTCCTTA	1.098 ± 0.0081
CACTTCGCCA	2.12 ± 0.17
CACTTCTGGC	1.03 ± 0.011
CACTTGATGT	0.996 ± 0.023
CACTTGGTGG	0.96 ± 0.038
CACTTTGTTT	1.01 ± 0.066
CACTTTTGTA	1.01 ± 0.012
CAGAAAAAAG	1.01 ± 0.028
CAGAAAAGCT	1.07 ± 0.034
CAGAACAAAA	1.03 ± 0.035
CAGAACCAGG	1.24 ± 0.06
CAGAAGACAG	0.995 ± 0.071
CAGAAGGGTG	1.02 ± 0.011
CAGAATTGAG	0.995 ± 0.0026
CAGACGTAGG	1.01 ± 0.056
CAGAGCCATA	1.05 ± 0.013
CAGAGGAGTT	1.01 ± 0.051

Sequence	switch fluorescence ratio
CAGAGGGC	1.04 ± 0.04
CAGAGTAGGT	1.02 ± 0.048
CAGAGTATCG	1 ± 0.021
CAGAGTCGGT	1 ± 0.024
CAGATCTGAA	0.952 ± 0.07
CAGATGCCTC	1.012 ± 0.0086
CAGATTATTT	0.99 ± 0.015
CAGATTTGCT	0.983 ± 0.013
CAGCAAATGG	1.47 ± 0.26
CAGCACAGAT	1.015 ± 0.0019
CAGCATTGGG	0.978 ± 0.038
CAGCCCGATC	1.22 ± 0.032
CAGCCCTTGA	1.024 ± 0.0083
CAGCCGGGGA	1.02 ± 0.019
CAGCGAGGTC	1.05 ± 0.012
CAGCGCGTGC	1.01 ± 0.051
CAGCGGGCGA	1.01 ± 0.032
CAGCGGGGCA	1.017 ± 0.0072
CAGCGGGGGG	1.01 ± 0.034
CAGCGGGGTG	1.11 ± 0.15
CAGCGTCTTT	0.994 ± 0.012
CAGCGTGGGG	1.022 ± 0.0092
CAGCTAAAGT	1.009 ± 0.0017
CAGCTATGTG	0.973 ± 0.011
CAGCTGGGGT	1.01 ± 0.039

Sequence	switch fluorescence ratio
CAGCTTGGA	1.01 ± 0.029
CAGCTTTTCG	0.998 ± 0.046
CAGGACATTA	0.994 ± 0.058
CAGGAGTACA	1.03 ± 0.012
CAGGAGTAGC	1.05 ± 0.018
CAGGAGTTGA	1.01 ± 0.025
CAGGCATGCG	1.01 ± 0.037
CAGGCGTTGC	1.17 ± 0.19
CAGGCTTGG	0.994 ± 0.011
CAGGCTTGTA	1.004 ± 0.0098
CAGGGAAAAC	1.03 ± 0.034
CAGGGAAAAG	0.991 ± 0.032
CAGGGAAGCG	0.991 ± 0.018
CAGGGACAAT	1.04 ± 0.023
CAGGGAGAAT	1.01 ± 0.019
CAGGGAGCTG	1.01 ± 0.027
CAGGGATAGG	1.019 ± 0.0092
CAGGGATGCT	1.02 ± 0.035
CAGGGATGGG	0.961 ± 0.023
CAGGGCAAGC	1.36 ± 0.057
CAGGGCAGGG	0.951 ± 0.028
CAGGGCCATA	1.02 ± 0.0042
CAGGGCGTTT	1.01 ± 0.028
CAGGGCTCCC	1.01 ± 0.02
CAGGGGAAGC	0.999 ± 0.011

Sequence	switch fluorescence ratio
CAGGGGAAGG	1.04 ± 0.053
CAGGGGAGAG	0.999 ± 0.027
CAGGGGATAT	0.993 ± 0.046
CAGGGGATTG	1.11 ± 0.14
CAGGGGCCAA	0.979 ± 0.017
CAGGGGCGGC	0.923 ± 0.064
CAGGGGCTTC	1.02 ± 0.018
CAGGGGGGAA	1.024 ± 0.0064
CAGGGGGGCT	1.04 ± 0.057
CAGGGGGGTG	1.01 ± 0.051
CAGGGGGTAA	1.01 ± 0.069
CAGGGGGTTG	0.9866 ± 0.0018
CAGGGGTCGT	1.03 ± 0.038
CAGGGGTTAG	0.9927 ± 0.0026
CAGGGGTTAT	1.01 ± 0.015
CAGGGTATGA	1.007 ± 0.0046
CAGGGTCGGC	0.993 ± 0.035
CAGGGTGATA	1.06 ± 0.071
CAGGGTGGGA	1.02 ± 0.044
CAGGGTTATT	0.995 ± 0.02
CAGGGTTGTT	0.992 ± 0.026
CAGGTAAATT	0.975 ± 0.03
CAGGTAATAG	1.17 ± 0.028
CAGGTAGATC	1.04 ± 0.05
CAGGTATTCA	1.0177 ± 8.3e-05

Sequence	switch fluorescence ratio
CAGGTATTGA	1 ± 0.03
CAGGTCCGCT	1.12 ± 0.036
CAGGTCGTT	1.01 ± 0.054
CAGGTCTGTG	1.025 ± 0.0022
CAGGTTAAGG	1.01 ± 0.018
CAGGTTGAAG	0.9631 ± 0.0069
CAGGTTGTTT	1.23 ± 0.45
CAGGTTTAGG	1.01 ± 0.021
CAGGTTTGGT	0.984 ± 0.021
CAGGTTTTCT	0.9968 ± 0.0018
CAGTAAAGTG	0.998 ± 0.017
CAGTAATAGG	1.07 ± 0.0075
CAGTAATGCG	0.99757 ± 0.00094
CAGTACCGGA	0.9935 ± 0.0044
CAGTAGAGGT	0.9766 ± 0.0042
CAGTAGGCCA	1.01 ± 0.032
CAGTAGGTGG	1 ± 0.028
CAGTAGTCGA	1.03 ± 0.014
CAGTATTCGG	1 ± 0.015
CAGTCAAGGG	1.01 ± 0.013
CAGTCACTTG	1.01 ± 0.029
CAGTCCCCTT	1.33 ± 0.44
CAGTCGGGCT	0.974 ± 0.02
CAGTCGGGTT	1.03 ± 0.079
CAGTCTTATT	0.9712 ± 0.0087

Sequence	switch fluorescence ratio
CAGTCTTTTA	0.957 ± 0.035
CAGTGACAGT	1.028 ± 0.0014
CAGTGACGGT	1.03 ± 0.021
CAGTGATACG	1.16 ± 0.036
CAGTGCGCCT	0.996 ± 0.036
CAGTGCGGAG	0.999 ± 0.016
CAGTGCGGCA	1.038 ± 0.0027
CAGTGGAGCC	1.01 ± 0.034
CAGTGGGGGG	1.01 ± 0.039
CAGTGGGGTG	0.993 ± 0.03
CAGTGTAGTC	1.02 ± 0.057
CAGTGTATTT	1.01 ± 0.038
CAGTGTGTAT	0.989 ± 0.013
CAGTGTTATG	0.97 ± 0.014
CAGTGTTGGC	1 ± 0.016
CAGTTCGGAA	1.07 ± 0.027
CAGTTGCGCA	0.996 ± 0.034
CAGTTGGGTA	0.98 ± 0.028
CAGTTTAGTT	0.987 ± 0.072
CAGTTTCGGG	1.004 ± 0.01
CAGTTTGTTC	0.987 ± 0.022
CAGTTTTATT	0.992 ± 0.022
CATAAACGCG	1.003 ± 0.0088
CATAAAGGAG	1.01 ± 0.016
CATAACGCCT	1.09 ± 0.027

Sequence	switch fluorescence ratio
CATAACGGTT	0.98 ± 0.025
CATAACTTGG	1.011 ± 0.002
CATAAGATGC	1.03 ± 0.027
CATAAGGGTT	1.13 ± 0.17
CATAAGGTCG	1.03 ± 0.083
CATAATAACC	1.03 ± 0.018
CATAATATTG	0.991 ± 0.011
CATACAGGGG	1.44 ± 0.067
CATACCCAAA	1.05 ± 0.039
CATACGGGGG	1.03 ± 0.025
CATACGTGCG	1 ± 0.042
CATAGGGGCC	0.9643 ± 0.0074
CATAGGTAAG	0.9837 ± 0.0022
CATAGTTTGC	0.9979 ± 0.0053
CATATAATTG	0.976 ± 0.014
CATATAGAGG	1.01 ± 0.054
CATATATTTT	1.04 ± 0.058
CATATCGGAA	1.187 ± 0.0077
CATATGGTAT	1.02 ± 0.037
CATATTATGA	0.987 ± 0.012
CATATTCTTT	0.979 ± 0.016
CATATTGCTT	0.993 ± 0.028
CATATTGGTC	1 ± 0.062
CATATTTGGG	0.981 ± 0.081
CATATTTTGT	1.0216 ± 0.00042

Sequence	switch fluorescence ratio
CATATTTTTG	0.996 ± 0.013
CATCAATGTG	0.997 ± 0.052
CATCAGGATG	1.01 ± 0.031
CATCAGGGTT	0.974 ± 0.013
CATCAGTGGT	1.03 ± 0.032
CATCATGGTC	1.03 ± 0.054
CATCATTGGG	0.993 ± 0.016
CATCCGGGGT	2.04 ± 0.57
CATCCTGAAT	1.08 ± 0.027
CATCGGCTCA	1.12 ± 0.067
CATCGGGGTA	1.02 ± 0.029
CATCGTGGGT	0.975 ± 0.027
CATCTCATAT	1.02 ± 0.028
CATCTGTG	1.03 ± 0.016
CATCTTATGA	0.99 ± 0.0043
CATCTTGAAT	1 ± 0.046
CATGATGAGA	0.969 ± 0.035
CATGATTATT	0.986 ± 0.024
CATGCACACT	1.11 ± 0.053
CATGCACCGG	0.986 ± 0.05
CATGCAGATA	1.006 ± 0.0094
CATGCCAGAT	0.994 ± 0.028
CATGCGTTTT	1.04 ± 0.043
CATGCTACGG	1.01 ± 0.016
CATGCTAGAG	0.99 ± 0.025

From the supplement of paper PMC10126150
